Assays:
HLA-A*02 [1] = target: HLA-A*02 (human); test: UV-ligand exchange, anti-b2m ELISA; grade: exchange yield >=75%
HLA-A*02 [2] = target: HLA-A*02 (human); test: UV-ligand exchange, anti-b2m ELISA; grade: exchange yield >=50%

| Binder | peptide exchange yield (HLA-A*02 [1]) [%] | peptide exchange yield (HLA-A*02 [2]) [%] |
| --- | --- | --- |
| LLYEGKLTL | ≥ 75 | – |
| QLHDFVMSL | ≥ 75 | – |
| SLLEEPNVIRV | ≥ 75 | – |
| SLLPQLIEV | ≥ 75 | – |
| SLSAFLPSL | ≥ 75 | – |
| SVYDGKLLI | ≥ 75 | – |
| TLGQFYQEV | ≥ 75 | – |
| TVGGSEILFEV | ≥ 75 | – |
| VLGEVKVGV | ≥ 75 | – |
| VLMDKLVEL | ≥ 75 | – |
| LLIDVVTYL | ≥ 75 | – |
| ALYGRLEVV | ≥ 75 | – |
| VLIGSNHSL | ≥ 75 | – |
| GLAFSLNGV | ≥ 75 | – |
| ALDAGAVYTL | ≥ 75 | – |
| ALLETNPYLL | ≥ 75 | – |
| ALPTVLVGV | ≥ 75 | – |
| ALSQVTLLL | ≥ 75 | – |
| ALTSISAGV | ≥ 75 | – |
| AMGEKSFSV | ≥ 75 | – |
| AVIGGLIYV | ≥ 75 | – |
| GLFAPLVFL | ≥ 75 | – |
| GLLSGLDIMEV | ≥ 75 | – |
| GLSNLGIKSI | ≥ 75 | – |
| LLFPHPVNQV | ≥ 75 | – |

| Binder | peptide exchange yield (HLA-A*02 [1]) [%] | peptide exchange yield (HLA-A*02 [2]) [%] |
| --- | --- | --- |
| RVIEHVEQV | ≥ 75 | – |
| TLGQIWDV | ≥ 75 | – |
| YIHNILYEV | ≥ 75 | – |
| RLFNDPVAMV | ≥ 75 | – |
| ALLGKLDAI | ≥ 75 | – |
| YLEPYLKEV | ≥ 75 | – |
| KLFEEIREI | ≥ 75 | – |
| KIAELLENV | ≥ 75 | – |
| KLGAVFNQV | ≥ 75 | – |
| KLLDTMVDTFL | ≥ 75 | – |
| LLLGERVAL | ≥ 75 | – |
| NLAEVVERV | ≥ 75 | – |
| RLFADILNDV | ≥ 75 | – |
| VMQDPEFLQSV | ≥ 75 | – |
| WLIEDGKVVTV | ≥ 75 | – |
| KLYQEVEIASV | ≥ 75 | – |
| LLLDKLILL | ≥ 75 | – |
| ALAEALKEV | ≥ 75 | – |
| ALLEADVNIKL | ≥ 75 | – |
| ALTSVVVTL | ≥ 75 | – |
| KVLDKVFRA | ≥ 75 | – |
| LIGEFLEKV | ≥ 75 | – |
| NLIDLDDLYV | ≥ 75 | – |
| RLIDLHTNV | ≥ 75 | – |
| KIQEILTQV | ≥ 75 | – |

| Binder | peptide exchange yield (HLA-A*02 [1]) [%] | peptide exchange yield (HLA-A*02 [2]) [%] |
| --- | --- | --- |
| KLSNVLQQV | ≥ 75 | – |
| QLIEVSSPITL | ≥ 75 | – |
| RIAGIRGIQGV | ≥ 75 | – |
| TLPDFRLPEI | ≥ 75 | – |
| ALNAVRLLV | ≥ 75 | – |
| ALLELDEPLVL | ≥ 75 | – |
| ALQDAIRQL | ≥ 75 | – |
| ALQDQLVLV | ≥ 75 | – |
| GLIHLEGDTV | – | 50 to 75 |
| GLLDPNVKSIFV | – | 50 to 75 |
| GLYGRTIEL | – | 50 to 75 |
| GVLPGLVGV | – | 50 to 75 |
| HLTEAIQYV | – | 50 to 75 |
| ILADLNLSV | ≥ 75 | – |
| ILADTFIGV | – | 50 to 75 |
| ILSPLSVAL | ≥ 75 | – |
| KIADFELPTI | ≥ 75 | – |
| KIDEKNFVV | – | 50 to 75 |
| KILEETLYV | – | 50 to 75 |
| KLFSGDELLEV | – | 50 to 75 |
| KLHEEIDRV | – | 50 to 75 |
| KLKETIQKL | – | 50 to 75 |
| KLLDEVTYLEA | ≥ 75 | – |
| KLLDLETERILL | ≥ 75 | – |

Source: patent publication US20160250307A1 (IMMATICS BIOTECHNOLOGIES, published 2016)
